Data set [1] deals with laser-induced choroidal neovascularization rat model. The data set can be described thus: Laser-induced choroidal neovascularization rat model: CNV area in choroidal flat mount (FITC-dextran). Type of data set: in vivo. The method, then: The groups were set as in Table 8 below. Laser irradiation was performed on the right eye in 10 animals in each group. EYLEA (registered trademark) was administered intravitreally into the right eye of individuals in Group 2 immediately after laser irradiation. For the individuals of Groups 1, 3, and 4, eyedrop administration of the administration substances of each group was performed four times a day from the day of laser irradiation to the day before eyeball enucleation.
Animals to be laser-irradiated were subjected to pupil dilation with Mydorin (registered trademark) P ophthalmic solution, and subjected to general anesthesia by intramuscular injection of a mixed solution of ketamine hydrochloride/xylazine hydrochloride (4:1, v/v) (1 mL/kg) into the thigh muscle. Then, fundus of the right eye was then observed using a slit lamp (SL-130, Carl Zeiss Meditec AG), and laser irradiation was performed at six locations using a green laser photocoagulation device (GYC-500, Nidek Co., Ltd.), avoiding thick capillaries of the retina. The laser conditions were a wavelength of 532 nm (green), a spot size of 50 μm, an irradiation time of 0.1 sec, and a laser irradiation intensity of 300 mW. Except for the individuals to be administered EYLEA (registered trademark), sodium hyaluronate (Hyalein (registered trademark) ophthalmic solution 0.3%, Santen Pharmaceutical Co., Ltd.) as an eye drop for treatment of corneal and conjunctival epithelial disorders was instilled into both eyes after laser irradiation.
Levofloxacin hydrate (CRAVIT (registered trademark) 1.5% ophthalmic solution, Santen Pharmaceutical Co., Ltd.) as a broad-spectrum antibacterial eye drop and oxybuprocaine hydrochloride (Benoxil (registered trademark) 0.4% ophthalmic solution, Santen Pharmaceutical Co., Ltd.) as an ophthalmic topical anesthetic were once instilled into the right eye of rats in Group 2 (EYLEA (registered trademark) administration group) after end of laser irradiation, and then EYLEA (registered trademark) was intravitreally administered at a dose of 200 μg/5 μL/eye using a 33 G two-stage injection needle and a microsyringe (Ito Manufacturing Co., Ltd.). The microsyringe was washed with D-PBS before administration. Hyalein (registered trademark) ophthalmic solution 0.3% was instilled into both eyes after intravitreal administration.
Eyedrop administration of the test substance and the negative control administration solution was performed in a volume of 5 μL/eye using a micropipette (Eppendorf Research Plus V, Eppendorf) at the administration period and the number of times determined for each group (see Group constitution table of Item (2)). At that time, since a test substance solution adheres to an outer side of the tip, care was taken so that the adhering test substance solution was wiped off with a Kimwipe once each time of eyedrop administration, and an excessive amount of the test substance solution was not instilled. In addition, although the tip of the pipette tip was sharp, care was taken not to damage the eyeball surface. Immediately before administration, the administration solution was lightly (about several seconds) centrifuged using a small microcentrifuge Wonder Spin, and the supernatant was used for administration.
Fourteen days after laser irradiation (Day 14), under general anesthesia by intramuscular femoral administration (1 mL/kg) of a ketamine hydrochloride/xylazine hydrochloride (4:1, v/v) mixed solution, a 4% FITC-dextran solution was administered to the tail vein at a dose of 40 mg/l mL/animal.
After 1 minute from the tail vein administration of the 4% FITC-dextran solution, rats were euthanized by excessive anesthesia by administration of 129.6 mg/mL sodium pentobarbital solution and the right eye ball was enucleated. The enucleated eyeball was fixed in a 4% paraformaldehyde phosphate buffer (FUJIFILM Wako Pure Chemical Corporation, hereinafter referred to as 4% PFA) for 12 to 30 hours at normal temperature. […]

A short description of data set [2]: Body weight measurement during the CNV rat test. Type of data set: in vivo. The following applies: for Body Weight (Average): Group 2, IVT inj. 200 μg/5 μL/eye single dose; for Weight (g) (Individual): Group 2 individual animals, IVT 200 μg/5 μL/eye. The method, then: The appearance, behavior, and state of excrement or the like were observed every day.
The body weight was measured on the animal arrival date, the preliminary housing end date (grouping date), the eyedrop administration start date, the laser irradiation date (Day 0), and the eyeball enucleation date (Day 14).

Several values for one entry are separate records, joined by “and”; a condition that tells them apart may be missing. Equal values may be shown once.

The values that follow come from patent publication US20260091082A1, “CYCLIC PEPTIDE DERIVATIVE COMPOSITION FOR TREATING OR PREVENTING EYE DISEASE” (DKS Co. Ltd., priority 2022, published 2026).

On to Aflibercept [EYLEA], for which the “Area of CNV Lesion, Mean” value in data set [1] (Group 2, IVT inj. 200 μg/5 μL/eye single dose after irradiation, 14 days after laser, N=10) is reported as 421359.3 pixel. For the same substance, in data set [1] (Group 2, intravitreal 200 μg/5 μL/eye, Student's t-test), the “CNV area compared with Group 1 (saline), in words” value is listed as “CNV area was significantly reduced”. The “Individual Value of CNV Area in Each Animal” value in data set [1] (Group 2 individual animals, IVT 200 μg/5 μL/eye, 14 days after laser) is 396255.8 pixel and 417758.8 pixel and 460248.8 pixel and 470883.0 pixel and 474112.7 pixel and 444455.3 pixel and 440849.3 pixel and 374017.3 pixel and 402387.0 pixel and 332625.3 pixel. The “Body Weight (Average)” value in data set [2] (Day 0 (Laser injection)) is listed as 155.10 g; in data set [2] (Day 14 (Enucleation)), 200.52 g; in data set [2] (Day −3 or Day −2 (Grouping)) it was 141.91 g. The “Weight (g) (Individual)” value is 191.41 g and 189.23 g and 203.15 g and 192.58 g and 215.19 g and 210.30 g and 206.10 g and 205.20 g and 197.20 g and 194.87 g in data set [2] (Enucleation (Day 14)); 132.69 g and 135.94 g and 139.54 g and 143.39 g and 145.96 g and 144.35 g and 147.21 g and 151.85 g and 140.51 g and 137.64 g in data set [2] (Grouping (Day −3 or −2)); 140.59 g and 146.82 g and 151.42 g and 154.62 g and 160.15 g and 162.32 g and 160.99 g and 169.71 g and 155.47 g and 148.87 g in data set [2] (Laser injection (Day 0)).
